Reference: publication PMC12549904 (Communications Biology, 2025)

Biological target: Biotinylated RpoS (S. Typhimurium ATCC 14028S, UniProt D0ZVL4 1-330, biotin (EZ-Link-Biotin; sites not stated))
Assay: BLI

Biotinylated RpoS, sequence (D0ZVL4 whole entry): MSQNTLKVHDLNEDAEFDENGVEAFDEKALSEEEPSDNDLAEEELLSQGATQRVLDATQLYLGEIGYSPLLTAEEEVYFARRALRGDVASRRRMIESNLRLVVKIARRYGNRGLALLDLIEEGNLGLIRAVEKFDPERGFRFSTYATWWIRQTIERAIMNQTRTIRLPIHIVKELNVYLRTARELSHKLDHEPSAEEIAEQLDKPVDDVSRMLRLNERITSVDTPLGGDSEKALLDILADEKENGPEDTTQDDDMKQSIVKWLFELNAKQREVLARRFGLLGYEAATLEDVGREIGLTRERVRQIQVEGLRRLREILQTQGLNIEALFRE

- Kd: 0.0436 µM
B1: MicN (purified, His-tag cleaved) (natural protein, S. Typhimurium ATCC 14028S)
chain: MKEGFYWIQHNGRVQVAYYTHGVTEDLETGQTIIGVWHLTQGDDICHNGEAEILAGPLEPPI
